Reference: publication PMC9820559, “Investigation of the Fuzzy Complex between RSV Nucleoprotein and Phosphoprotein to Optimize an Inhibition Assay by Fluorescence Polarization” (International Journal of Molecular Sciences, 2022)
Ends that are not written are not given here. Peptide text beside a SMILES is read from it. * marks the point of attachment. dicyano BODIPY FL = CC1=CC(C)=[N+]2C1=Cc1ccc(CCC(=O)*)n1[B-]2(C#N)C#N; FITC = O=C1OC2(c3ccc(O)cc3Oc3cc(O)ccc32)c2ccc(NC(=S)*)cc21; X1 = Cc1cc(C)n2c1C=C1C=CC(CCC(=O)*)=[N+]1[B-]2(C#N)C#N

Tests used:
[1] = target: T1, RSV N-RNA complex (Human respiratory syncytial virus A, UniProt P03418); assay: Fluorescence polarization inhibition of N-RNA binding to fluorescent probes; details: probe BCN8E 200 nM
T1 construct: Full-length N was produced by co-expression with the C-terminal domain of RSV P protein in E. coli BL21(DE3); made in house; host or cells: E. coli BL21(DE3), co-transformed with pET-N and pGEX-P(161–241)
Excerpt: We next performed inhibition experiments for the F11-(N-RNA) complex by M76 (Figure 4B). FP values decreased with increasing competitor concentration. At saturation, FP nearly reached the value of free F11, showing that the F11 peptide could be nearly completely displaced. Since the same concentration range was used for NNTD and N-RNA, poor solubility of M76 can be ruled out to explain the saturation observed before complete displacement of F11 in the presence NNTD (Figure 3C). This reinforces the hypothesis of a second binding site on NNTD, outside the canonical P-binding site. […]
To probe the potency of M76 as an inhibitor, we carried out competition experiments with the M76 molecule and several BCNn peptides. M76 was able to displace the fluorescent probes from N-RNA, and inhibition curves were obtained (Figure 8E). Since we used different N concentrations to have similar dynamic ranges of FP for the series of fluorescent peptides, we cannot directly compare M76 IC50s. However, Kis may be compared.
(§1) Fluorescence polarization measurements were carried out on a Paradigm Detection Platform (Beckman Coulter, Brea, CA, USA) operating with a microplate reader, a fluorescein detection cartridge (excitation range 485/20 nm, emission range 535/25 nm for both parallel and perpendicular components) and the SpectraMax Pro 6.1 software (Molecular Devices, San Jose, CA, USA). Samples were placed in polystyrene black flat bottom 96-well microplates (Cellstar, Greiner bio-one, Frickenhausen, Germany) with 20 µL final volume in each well. If not stated otherwise, the final concentration of fluorescent ligands was 200 nM. The buffer was either 20 mM MES pH 6.5, salt-free or with 250 mM NaCl, or 20 mM Tris pH 8.0 salt-free or with 100 mM NaCl, supplemented with 0.01% Brij-35. Mixing was done using the corresponding plate reader option. The temperature was set to 20 °C. Data were recorded in top reading mode. Measurements were done in triplicate and after an incubation time of 30 min, if not indicated otherwise. Fluorescence polarization (FP) in mFP units was determined from the parallel (I∥) and perpendicular (I⊥) components of the emitted light according to Equation (4). A grating factor G of 1.2 was determined using 1 nM fluorescein in 1 mM NaOH and assuming a theoretical FP of 27 mFP [48]. Background signal was measured from wells containing only buffer, and the mean value was subtracted from each I∥ and I⊥ component. (4) FP (mP)=1000×(I∥−G∗I⊥)/(I∥+G×I⊥)
To assess inhibition of a complex between a fluorescent probe and N protein by peptides or the M76 molecule, the concentration of N was set to work with an FP range comprised between FPmin and ~80% FPmax. Peptides were added from 1 or 2 mM stock solution in water at neutral pH. M76 was added from 10 or 20 mM stock solutions in ethanol or in DMSO. […] Inhibition data were fitted with Origin 7, and in parallel with the Excel solver module. All data were compatible with an absence of cooperativity. FPmax and FPmin were fitted, and the maximal inhibition %i,max was set to 100%. (11) %i=100×[1−(FP−FPmin)/(FPmax−FPmin)] (12) %i=%i,max×[inhibitor]/[inhibitor]+IC50
Inhibition constants Ki were calculated on the IC50-to-Ki converter for a protein-ligand-inhibitor system (https://bioinfo-abcc.ncifcrf.gov/IC50_Ki_Converter/index.php, accessed on 24 August 2022), assuming a competitive mechanism (Equation (13)). This tool takes into account the free concentrations of protein and ligand. (13) Ki=(IC50−[protein]/2)/([peptide]/Kd+1)

[2] = target: T1, RSV N-RNA complex; assay: biochemical; type: binding
Experimental: We carried out FP measurements using the fluorescent F11 peptide and N-RNA complex. […] No salt was added to promote high affinity.
We first measured binding of Fn peptides (200 nM) to N-RNA in Tris buffer by FP (Figure 5A,B). […] We fitted the data with ΔFPmax and Kd as parameters.
We therefore measured fluorescein FP in the presence of N-RNA. […] To test if fluorescein binds to the P-binding site on the N-RNA, we carried out a competition experiment with M76 (Figure 6C).
We first performed FP measurements in salt-free Tris pH 8 buffer (Figure 8A). We measured binding curves using 200 nM of fluorescent peptides.
as §1
We assumed that the measured fluorescence polarization FP is a linear combination of the FP of the fluorescent probe in the absence of N protein (FPmin) and the FP of N-bound fluorescent probe (FPmax), weighted by the molar fraction. The molar fraction x = [P]bound/[P]0 can then be expressed as a ratio of FP differences (Equation (8)). (8) x=(FP−FPmin)/(FPmax−FPmin)=∆FP/∆FPmax
To determine the Kd value of a complex between a fluorescent probe and N protein, a series of samples with constant probe concentration and varying N concentration was measured. FP binding curves were fitted with a single binding site model and a 1:1 stoichiometry.

[3] = target: T2, RSV N-RNA complex (full-length N protein in ring-shaped complexes with bacterial RNA) (human respiratory syncytial virus, UniProt P03418 1-391); assay: fluorescence polarisation; 200 nM FTU-labelled Fn peptide, N-RNA varied (up to 40 µM N); 20 mM Tris pH 8.0 without salt, 0.01% Brij-35; 20 °C; 30 min incubation; single site model, or with a linear contribution where marked (*); details: both partners purified
T2 construct: human RSV nucleoprotein N, full length; concentrations are of N protomer; also called N-RNA rings; source: in lysate for the co-purification; purified (glutathione-Sepharose, thrombin, Superdex 200) as N-RNA complex; copies: 10-11
T2 sequence (looked up): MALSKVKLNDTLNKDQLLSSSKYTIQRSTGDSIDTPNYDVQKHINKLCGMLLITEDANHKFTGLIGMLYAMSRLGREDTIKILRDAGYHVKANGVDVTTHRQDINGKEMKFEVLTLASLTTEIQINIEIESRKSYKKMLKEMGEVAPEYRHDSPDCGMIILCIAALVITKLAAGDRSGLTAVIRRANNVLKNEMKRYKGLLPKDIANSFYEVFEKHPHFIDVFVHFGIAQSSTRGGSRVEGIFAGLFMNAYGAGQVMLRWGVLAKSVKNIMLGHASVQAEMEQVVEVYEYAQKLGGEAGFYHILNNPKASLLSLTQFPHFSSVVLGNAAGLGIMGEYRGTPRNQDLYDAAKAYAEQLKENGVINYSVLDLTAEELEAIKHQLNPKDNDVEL

[4] = target: T2, RSV N-RNA complex (full-length N …); assay: fluorescence polarisation; 200 nM dicyano BODIPY FL-labelled BCNn peptide, N-RNA varied; 20 mM Tris pH 8.0 without salt, 0.01% Brij-35; 20 °C; single site model; details: both partners purified
[5] = target: T2, RSV N-RNA complex (full-length N …); assay: fluorescence polarisation; 200 nM dicyano BODIPY FL-labelled BCNn peptide, N-RNA varied; 20 mM Tris pH 8.0 with 100 mM NaCl, 0.01% Brij-35; 20 °C; single site model; details: both partners purified
[6] = target: T2, RSV N-RNA complex (full-length N …); assay: fluorescence polarisation; competition: unlabeled P peptide varied against 200 nM F11 on 10 µM N-RNA; Tris pH 8 without salt; Hill equation; Ki from the IC50-to-Ki server; details: both partners purified
[7] = BCNn peptides 200 nM, Tris pH 8.0, no salt, single site model

Molecule: Cc1cc(C)n2c1C=C1C=CC(CCC(=O)N[C@@H](CC(N)=O)C(=O)N[C@@H](CC(=O)O)C(=O)N[C@@H](CC(C)C)C(=O)N[C@@H](CCC(=O)O)C(=O)N[C@@H](CC(C)C)C(=O)N[C@@H](CCC(=O)O)C(=O)N[C@@H](CC(=O)O)C(=O)N[C@@H](Cc3ccccc3)C(=O)O)=[N+]1[B-]2(C#N)C#N [BCN8E] (X1-NDLELEDF-OH)
- Fitted FPmax ([1]; inhibitor M76, [N-RNA] 2 µM): 166 mFP
- Fitted FPmax ([1]; inhibitor M76, [N-RNA] 5 µM): 196 mFP
- decrease of affinity in salty buffer versus salt-free buffer ([2]; 100 mM NaCl vs no salt, Tris pH 8): 5 fold
- Kd [2, 7]: 1.4 µM
- ΔFPmax [2, 7]: 298 ± 5 mFP
- ΔFPmax ([2]; BCNn peptides 200 nM, Tris pH 8.0, with salt (100 mM NaCl), (*) saturation not reached): 284 ± 15 (*) mFP

B1: F5E (FTU-labelled RSV P 5-mer, Ser237Glu) (peptide)
peptide: {FITC}-ELEDF
notes: C-terminal 5 residues of RSV phosphoprotein P with a phosphomimetic glutamate at 237; source: synthetic peptide (Fmoc/tBu solid phase), FITC coupled in solution, HPLC purified
- Kd [3]: 5.9 ± 0.5 µM

B2: F_(11SE) (FTU-labelled RSV P 11-mer, Ser237Glu) (peptide)
peptide: {FITC}-DSDNDLELEDF
notes: C-terminal 11 residues of RSV phosphoprotein P with a phosphomimetic glutamate at 237; source: synthetic peptide (Fmoc/tBu solid phase), FITC coupled in solution, HPLC purified
- Kd [3]: 0.87 ± 0.26 µM

B3: BCN_(11EE) (dicyano BODIPY FL-labelled RSV P 11-mer, Ser232Glu/Ser237Glu) (peptide)
peptide: {dicyano BODIPY FL}-DEDNDLELEDF
notes: C-terminal 11 residues of RSV phosphoprotein P with phosphomimetic glutamates at 232 and 237; source: synthetic peptide (Fmoc/tBu solid phase, dicyano BODIPY FL coupled on resin, RP-HPLC purified)
- Kd [4]: 0.28 ± 0.07 µM
- Kd [5]: 0.26 ± 0.04 µM

B4: F_(11EE) (FTU-labelled RSV P 11-mer, Ser232Glu/Ser237Glu) (peptide)
peptide: {FITC}-DEDNDLELEDF
notes: C-terminal 11 residues of RSV phosphoprotein P with phosphomimetic glutamates at 232 and 237; source: synthetic peptide (Fmoc/tBu solid phase), FITC coupled in solution, HPLC purified
- Kd [3]: 0.38 ± 0.12 µM

B5: P11 (unlabeled RSV P C-terminal 11-mer) (peptide)
peptide: DSDNDLSLEDF
notes: unlabeled peptide from which F11 was made; C-terminal 11 residues of RSV phosphoprotein P; also called P_(11SS); source: bought: GeneCust (synthetic peptide, >95% purity)
- IC50 [6]: 86 ± 7 µM
- Ki [6]: 34 µM

B6: P_(11EE) (unlabeled RSV P 11-mer, Ser232Glu/Ser237Glu) (peptide)
peptide: DEDNDLELEDF
notes: unlabeled peptide from which F_(11EE) was made; C-terminal 11 residues of RSV phosphoprotein P; source: synthetic peptide (Fmoc/tBu solid phase, RP-HPLC purified)
- IC50 [6]: 22 ± 4 µM
- Ki [6]: 6 µM
